Data reported in patent publication US20110300138A1 (published 2011).
One block for each molecule: values may come before it.

Key:
[1] = target: thyroid stimulating hormone receptor (TSHR), full length human TSHR (human) (UniProt P16473); test: TSH-biotin competition ELISA, TSHR coated wells; 0.01 µg/mL in assay buffer
[2] = target: TSH receptor (TSHR), full length human, coated on tubes (human) (UniProt P16473); test: inhibition of 125I-K1-18 IgG binding to TSHR coated tubes; competitor 125I-K1-18 IgG; sample at 0.1 µg/mL in assay buffer
[3] = target: TSHR (full length) coated on tubes (human) (UniProt P16473); test: inhibition of 125I-K1-18 Fab (competitor) binding to TSHR coated tubes; test sample 1 µg/mL in HBD serum
[4] = target: TSHR (thyroid stimulating hormone receptor), full length human (human) (UniProt P16473); test: competitor ^125I-K1-70 IgG, TSHR coated tubes; 10 µg/mL in HBD
[5] = target: TSHR (full length) coated on tubes (human) (UniProt P16473); test: inhibition of 125I-K1-18 Fab (competitor) binding to TSHR coated tubes; test sample 0.1 µg/mL in HBD serum
[6] = target: TSH receptor (full length human TSHR) (human) (UniProt P16473); test: competition ELISA: inhibition of M22 Fab-peroxidase (competitor) binding to TSHR coated wells; negative control at 1 µg/mL diluted in HBD serum pool
[7] = target: TSH receptor (TSHR) coated on tubes (human) (UniProt P16473); test: inhibition of 125I-K1-70 IgG binding to TSHR coated tubes; negative control 0.01 µg/mL in assay buffer
[8] = target: TSHR (thyroid stimulating hormone receptor), full length human (human) (UniProt P16473); test: negative control; competitor ^125I-K1-70 IgG, TSHR coated tubes; 0.01 µg/mL in assay buffer
[9] = target: TSH receptor (TSHR) coated on tubes (human) (UniProt P16473); test: inhibition of 125I-K1-70 IgG binding to TSHR coated tubes; negative control 1 µg/mL in assay buffer
[10] = target: TSH receptor (TSHR) coated on tubes (human) (UniProt P16473); test: inhibition of 125I-K1-70 IgG binding to TSHR coated tubes; negative control 100 µg/mL in assay buffer
[11] = target: TSH receptor (TSHR) coated on tubes (human) (UniProt P16473); test: inhibition of 125I-K1-70 IgG binding to TSHR coated tubes; negative control 10 µg/mL in assay buffer
[12] = target: TSHR (thyroid stimulating hormone receptor), full length human (human) (UniProt P16473); test: negative control; competitor ^125I-K1-70 IgG, TSHR coated tubes; 10 µg/mL in assay buffer
[13] = target: wild type TSHR expressed in CHO cells (human) (UniProt P16473); test: cell-based or functional assay
[14] = target: TSHR with Phe134 mutated to Ala, expressed in CHO cells (human) (UniProt P16473); test: cell-based or functional assay
[15] = target: TSH receptor (full length human TSHR) coated on tubes (human) (UniProt P16473); test: 125I-TSH binding inhibition, TSHR coated tubes; 10 ng/mL, in assay buffer
[16] = target: thyroid stimulating hormone receptor (TSHR), full length, coated on tubes (human) (UniProt P16473); test: inhibition of 125I-TSH binding, TSHR coated tubes; antibody 0.01 µg/mL in assay buffer; mean of duplicate
[17] = target: human TSH receptor (full length) coated on ELISA plate wells (human) (UniProt P16473); test: TSH-biotin binding inhibition ELISA, TSHR coated wells; 10 µg/mL in HBD serum pool
[18] = target: TSH receptor (TSHR), full length human, coated on tubes (human) (UniProt P16473); test: inhibition of 125I-K1-18 IgG (competitor) binding to TSHR coated tubes; test sample at 1 µg/mL in HBD serum pool; mean of duplicate
[19] = target: human TSH receptor (full length) coated on ELISA plate wells (human) (UniProt P16473); test: TSH-biotin binding inhibition ELISA, TSHR coated wells; 10 µg/mL in assay buffer + 100 µg/mL 5B3 IgG
[20] = target: human TSH receptor (full length) coated on ELISA plate wells (human) (UniProt P16473); test: TSH-biotin binding inhibition ELISA, TSHR coated wells; 1 µg/mL in HBD serum pool
[21] = target: thyroid stimulating hormone receptor (full length human TSHR) (human) (UniProt P16473); test: ELISA, inhibition of TSH-biotin binding to TSHR coated wells; 10 µg/mL, diluted in assay buffer
[22] = target: human TSH receptor (full length) coated on ELISA plate wells (human) (UniProt P16473); test: TSH-biotin binding inhibition ELISA, TSHR coated wells; 1 µg/mL in assay buffer
[23] = target: thyroid stimulating hormone receptor (full length human TSHR) (human) (UniProt P16473); test: ELISA, inhibition of TSH-biotin binding to TSHR coated wells; 1 µg/mL, diluted in HBD serum pool
[24] = target: human thyroid stimulating hormone receptor (TSHR), full length (human) (UniProt P16473); test: 125I-K1-18 Fab competition, TSHR coated tubes; 100 µg/mL in assay buffer
[25] = target: TSH receptor (TSHR) coated on tubes (human) (UniProt P16473); test: inhibition of 125I-K1-70 IgG binding to TSHR coated tubes; sample 0.1 µg/mL in HBD serum pool
[26] = target: human TSH receptor (full length) coated on ELISA plate wells (human) (UniProt P16473); test: TSH-biotin binding inhibition ELISA, TSHR coated wells; 0.1 µg/mL in HBD serum pool

Molecule: M22 IgG (antibody)
Inhibition of binding (%) [15]: 26.4%

B1: 5C9 IgG (antibody, from another filing, V domains shown)
VH: EVQLVESGGGLIQPGGSLRLSCAASGFTVSSNYMSWVRQAPGKGLEWVSVTYSGGSTSYADSVKGRFTISRDNSKNTLYLQMNSLRAEDTAVYYCARGGRYCSSISCYARSGCDYWGQGTLVTVSS
VL: AIQMTQSPSSLSASVGDRVTITCRASQSISNYLNWYQQKPGKAPKLLIYAASSLQSGVPSRFSGSGSGTDFTLTISSLQPEDFATYYCQQSYSSPSTTFGQGTKLEIK
Inhibition of binding (%) [16]: 15.9% | % inhibition of TSH-biotin binding [17]: 42.6% | Inhibition of binding (%) [18]: 26.8% | % inhibition of TSH-biotin binding [19]: 63.9% | % inhibition of TSH-biotin binding [20]: 35.7% | Inhibition of binding (%) [21]: 37.8% | % inhibition of TSH-biotin binding [22]: 42.9% | Inhibition of binding (%) [23]: 28.5% | Inhibition of binding (%) [24]: 85.2% | Inhibition of binding (%) [25]: 4.4% | % inhibition of TSH-biotin binding [26]: 21.6%

More lines, now with the values ahead:

Inhibition of binding (%) [1]: 15.3% | Inhibition of binding (%) [2]: 54.8% | Inhibition of binding (%) [3]: 64.8% | Inhibition of binding (%) [4]: 48% | Inhibition of binding (%) [5]: 32.2%
Molecule: 9D33 IgG (antibody)

Inhibition of binding (%) [6]: 9.7% | Inhibition of binding (%) [7]: 3.2% | Inhibition of binding (%) [8]: -3.6% | Inhibition of binding (%) [9]: -2.6% | Inhibition of binding (%) [10]: 15.2% | Inhibition of binding (%) [11]: -2.1% | Inhibition of binding (%) [12]: 2.3%
Molecule: 5B3 IgG (antibody)

Cyclic AMP produced, TSH 0.01 ng/mL, wild type TSHR [13]: 2.5 pmol/mL | Cyclic AMP produced, TSH 0.03 ng/mL, wild type TSHR [13]: 4.29 pmol/mL | Cyclic AMP produced, TSH 0.1 ng/mL, wild type TSHR [13]: 10.6 pmol/mL | Cyclic AMP produced, TSH 0.3 ng/mL, wild type TSHR [13]: 28.9 pmol/mL | Cyclic AMP produced, TSH 1 ng/mL, wild type TSHR [13]: 52.5 pmol/mL | Cyclic AMP produced, TSH 3 ng/mL, wild type TSHR [13]: 61.1 pmol/mL | Cyclic AMP produced, TSH 0.01 ng/mL, mutated TSHR [14]: 4.73 pmol/mL | Cyclic AMP produced, TSH 0.03 ng/mL, mutated TSHR [14]: 6.05 pmol/mL | Cyclic AMP produced, TSH 0.1 ng/mL, mutated TSHR [14]: 12.7 pmol/mL | Cyclic AMP produced, TSH 0.3 ng/mL, mutated TSHR [14]: 27.3 pmol/mL | Cyclic AMP produced, TSH 1 ng/mL, mutated TSHR [14]: 53.7 pmol/mL | Cyclic AMP produced, TSH 3 ng/mL, mutated TSHR [14]: 61.5 pmol/mL | Mutated/Wild type (%), TSH 0.01 ng/mL [14]: 189% | Mutated/Wild type (%), TSH 0.03 ng/mL [14]: 141% | Mutated/Wild type (%), TSH 0.1 ng/mL [14]: 120% | Mutated/Wild type (%), TSH 0.3 ng/mL [14]: 94% | Mutated/Wild type (%), TSH 1 ng/mL [14]: 102% | Mutated/Wild type (%), TSH 3 ng/mL [14]: 101%
Molecule: TSH (ligand)
